This assay has as its target T1, p75^NTR (Homo sapiens, UniProt P08138).
T1 sequence (P08138 29-427): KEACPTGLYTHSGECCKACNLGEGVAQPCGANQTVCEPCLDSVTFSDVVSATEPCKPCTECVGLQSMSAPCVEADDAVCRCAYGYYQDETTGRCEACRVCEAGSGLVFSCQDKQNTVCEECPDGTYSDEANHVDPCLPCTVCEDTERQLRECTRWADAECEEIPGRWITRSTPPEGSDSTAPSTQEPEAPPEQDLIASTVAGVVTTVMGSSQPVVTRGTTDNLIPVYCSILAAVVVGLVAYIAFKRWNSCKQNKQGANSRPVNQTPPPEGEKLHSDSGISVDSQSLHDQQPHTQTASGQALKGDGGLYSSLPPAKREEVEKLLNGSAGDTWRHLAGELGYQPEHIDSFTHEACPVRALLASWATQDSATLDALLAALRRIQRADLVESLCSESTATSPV
The assay can be described thus: Antigen mediated proliferation and cytokine secretion of CD4+ T-cells co-cultured with autologous PDC of allergic donors. It is filed as cell-based. More on the design: nerve growth factor receptor p75^NTR, which is expressed by human and murine plasmacytoid dendritic cells (PDC); endogenous in cells; host or cells: primary human plasmacytoid dendritic cells (BDCA-4+ selection) from buffy coats or from peripheral blood of allergic donors. Here is the method:
CD4^+ T helper cells and PDC used in antigen mediated autologous CD4^+ T-cell proliferation assays were purified from peripheral blood (80 ml) obtained from specified donors who are known to have allergy against certain allergens. Peripheral blood was drawn in tubes containing Li-Heparin as anti-coagulant (S-Monovette Li-Heparin 7.5 ml, Sarstedt). CD4^+ T helper cells were purified from peripheral blood mononuclear cells by negative selection using CD4^+ T-cell isolation kit II (Miltenyi Biotec), as per manufacturer's instructions with slight modifications. Briefly, the cell pellet was re-suspended in 50 μl PBS E/B. Then 12 μl of Biotin-labelled antibody cocktail per 10^7 total cells were added and the cell suspension was incubated at 4° C. for 15 minutes. 50 μl of PBS E/B was added followed by addition of 25 μl of anti-biotin microbeads per 10^7 total cells. Cells were incubated at 4° C. for another 20 minutes, followed by washing with 10 ml PBS E/B and centrifugation (470 g for 6 minutes). […] The purity of isolated CD4^+ T helper cells was over 95% as assessed by flow cytometric analysis after co-staining with monoclonal mouse anti human CD3-PE (BD Biosciences) and monoclonal mouse anti human CD4-FITC (BD Biosciences). […]
Purified CD4^+ T helper cells (see above) were washed once with PBS. […] Cell number was determined.
Antigen mediated CD4^+ T helper cell proliferation responses were assayed using purified and CFSE labelled CD4^+ T helper cells in co-culture with purified PDC/BDAC4^+ cells. […] After 5 days of co-culture, supernatant was analyzed for Th1/Th2 cytokines by using BD cytokine bead array (CBA) Human Th1/Th2 cytokine kit (BD Biosciences) and percentages of proliferating CFSE-low CD4^+ T-cells were analyzed by flow cytometry.
The concentrations of IL-2, IL-4, IL-5, IL-10, IFNγ and TNFα in the supernatant were determined by using the CBA kit following manufacturer's instruction with modification in data analysis using Microsoft Excel. […]

Entries after “also recorded” stand apart in the source; their conditions may differ.

As to “NGF: Nerve growth factor, best characterized neurotrophin; natural p75^NTR agonist (R&D Systems)”, under “CD4+ T-cell/PDC co-culture with allergen, NGF vs without NGF”, the “secretion of IL-2 and IL-5” value is given as “dose-dependent increased secretion; also recorded: increasing secretion”. Moreover, the “antigen (allergen) mediated CD4+ T-cells proliferation (CFSE)” value (co-culture with autologous PDC plus specific allergen, NGF (25 ng/ml elsewhere in the source) vs without NGF, 5 days) is on record as “significantly increased; also recorded: increased proliferation”. Besides, under “with or without antigen plus minus NGF or with NGF alone”, the “proliferation of T-cells on its own (without PDC co-culture)” value was “did not show any proliferation”.

Source of the values: patent US20190381169A1, “PHARMACEUTICAL COMBINATIONS FOR IMMUNOTHERAPY” (Technische Universitat Dresden, priority 2014, published 2019).
